The data set can be described thus: amyloid nucleation score (Sup35N fusion, yeast selection) (log enrichment); library NNK1; higher = more nucleation; inactive = no reads after selection. In short, it runs like this: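 Nucleation score: DiMSum log enrichment of output over input reads, centred on the mode score of non-aggregating sequences. Only sequences with at least 100 input reads were kept. Reads came from Illumina sequencing of plasmid inserts before and after 7 days of growth at 30°C without adenine and uracil, in psi-negative yeast expressing Sup35N fused to peptides of 20 random codons after 24 hours of induction with 100 μM copper sulfate.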

± gives the uncertainty stated by the source.

In the case of DTVYDFTMPAWYDYMFWTKW, the amyloid nucleation score entry is “inactive”. The figure for ICKDKHAIV is -0.282 ± 0.37; for IICLVNMDLCKSR it is 3.9 ± 0.16. In turn, NTVCSAMRW returned an amyloid nucleation score of 4.14 ± 0.091. Then RKALYA, with -0.117 ± 0.38. NFELEHLEICSDVCFGCAAE had an amyloid nucleation score of 1.12 ± 0.65. Then QCVGPSVCVFVHRLVGCYRA, with 3.34 ± 0.098. Then LRLLSNVKWTKCS, with 0.367 ± 0.97; and LPCHLPRLVPKGYPSFTLYK, with -0.672 ± 0.4.

In turn, MFYLTFYNLRIND displayed an amyloid nucleation score of 6.01 ± 0.061.

RSHVVTGYARSGRGLLATDM displayed an amyloid nucleation score of 0.396 ± 0.45.

For LHAGRDSAASGPRISIWKPM, the amyloid nucleation score was 0.077 ± 0.38.

The substance LIYVLYLY came in with an amyloid nucleation score of 0.501 ± 0.55. The figure for SAYPCCLSEDYVSSSGVSNK is 0.74 ± 0.48; for MLIRVISDVLPG it is 0.224 ± 0.5. The figure for KRRWPSSNGDFFAECYQLGT is 0.461 ± 0.25; for EENLSSPWMPMVPIDTINWF it is 1.67 ± 0.52; for DINSYVAYLVYEGLVNGSDE it is 0.252 ± 0.46. Consider DIPIDIWSYPQHGRFS, for which the amyloid nucleation score was -0.814 ± 0.79. The figure for GTFISLLLS is -0.077 ± 0.26; for GFLICVFLSLVGYFGTCLRT it is -0.554 ± 0.97.

Consider VCLGLSQDLHKSYTVRSAT, for which the amyloid nucleation score is -0.009 ± 0.41. Then TGYGVAVGPFVGGDF, with -0.548 ± 1.5; and FDGGKVSILFAFISNP, with 6.252 ± 0.048.

For the substance HWTPC, the amyloid nucleation score result was “inactive”.

On to PFSGFLCSRVCAMVDKTLFS, for which the amyloid nucleation score entry is “inactive”. With GLVTRMSQTHPVSYNHITIL, the amyloid nucleation score is -0.072 ± 0.28. DMFVGKTRMRRGSVMLYFMG returned an amyloid nucleation score of 0.829 ± 0.52. In turn, SVDLFSCRRIRLTLLEVFVT displayed an amyloid nucleation score of -0.028 ± 0.41. Then MDSTDWRVLLGRSMGWS, with -0.596 ± 0.47. LRLCWLNQVRNKQGL showed an amyloid nucleation score of -0.481 ± 0.92.

Take VWTGCVHCRRWDSGSLLNSW: the amyloid nucleation score was -0.036 ± 0.91. The figure for KMSVRNVTDFGVRLVRYFNG is 1.42 ± 0.22; for SLFAQKS it is -0.273 ± 0.32; for IFSNQLYVERIVLDENKALL it is 3.62 ± 0.094. With SGMVLNNQSS, the amyloid nucleation score is -0.763 ± 0.79.

As for SHFVLMLFENSIIVCLEDWE, the amyloid nucleation score is 1.91 ± 0.57. The figure for PDSARSECAGRVNLFVFRAR is 0.559 ± 0.32. Then PWKWF, with -0.224 ± 0.43; and RSEYAPRTNYK, with -0.237 ± 0.48.

As to MTWIENKPLHNVRCRGIIAV, the amyloid nucleation score was -0.12 ± 0.43.

In the case of RSLFMAQVGHMWGRNVIRGI, the amyloid nucleation score is -0.29 ± 1.7.

VYPFD came in with an amyloid nucleation score of -1.32 ± 1.4. Then LRISSFDMDNSVWFSRVYNY, with 0.844 ± 0.26; and NFRKL, with “inactive”; and ESSAIRNGEC, with 0.252 ± 0.52.

As to DFFRFC, the amyloid nucleation score entry was “inactive”. The figure for SIYRHDA is -0.053 ± 1.1. For FSGCQSARGKLWVSDWEL, the amyloid nucleation score entry was “inactive”.

Regarding FRHYTANYWYISRRRRMLSV, the amyloid nucleation score entry was “inactive”. Substance IRDMFVSGSQFFLKHMLSRG had an amyloid nucleation score of 0.436 ± 0.78. The figure for YVQLI is -0.256 ± 0.39; for LYSCMRVVATATVSGGLVIE it is -0.843 ± 0.69. In the case of IEIGSSF, the amyloid nucleation score is 0.118 ± 0.6. Then FWYFMLNMVQPRY, with -0.198 ± 0.87. On to DSRVKRY, for which the amyloid nucleation score entry was “inactive”.

MWVLRPCCHFAVCRGIKVSR: the amyloid nucleation score is -0.046 ± 0.53. LVQVWLKN gave an amyloid nucleation score of 0.43 ± 0.34. The figure for VEIGFFQRHKARIFMGTRSL is -0.209 ± 0.34. The figure for AVFLMFRYASFTYWM is 0.444 ± 1.2; for EKLRIVHQRRGRVHFNSGAI it is -0.482 ± 0.41; for NACRCVYSGRVSAYDVRVRN it is 0 ± 0.6. Then RFLTGCICAQSLRQLTS, with -0.075 ± 0.48; and SFYLFCPNCGRWTVFGEYS, with -1 ± 0.31; and WTNSRHC, with 0.636 ± 0.38.

In turn, WFYKLSSLFYNPLCL displayed an amyloid nucleation score of -1.13 ± 0.41. With DKLVYLHWPIYNVSVLCCRG, the amyloid nucleation score amounted to 5.14 ± 0.095. Consider WGLNWSNSNN, for which the amyloid nucleation score result is “inactive”.

VLGYAFYCYLCRNLRRNNFS: the amyloid nucleation score worked out at 0.864 ± 0.53. Consider NDSDARYHVFRK, for which the amyloid nucleation score was -0.256 ± 1.2. Substance VHRQMEMIIKIVWTRAYAFT yielded an amyloid nucleation score of 2.33 ± 0.6. For HTHSGVYC, the amyloid nucleation score was -0.468 ± 0.5. Then ETMGGLE, with 0.107 ± 0.9; and IFQPFFAYSGKLVWPFKRDP, with 4.01 ± 0.081; and ELRCTTWSRSPSLQVALVDL, with -0.499 ± 0.59. The figure for QTCAYGLRNTTSTVCLYRWG is 0.294 ± 0.53; for CLPRSGLSINWTVSHNYRLI it is 0.11 ± 0.25; for QGFRVWKLNTIKRHSWMGFA it is 0.772 ± 0.44. The substance RELNSRPVFYLLGMDQSIGA had an amyloid nucleation score of 4.43 ± 0.14. In turn, WMALDYGYSTSHGNCYMEIS showed an amyloid nucleation score of 1.23 ± 0.84. For TFCCIVSFF, the amyloid nucleation score came out at 7.199 ± 0.049. The figure for YRRDYGPKSVDWRPYVVEVR is 0.359 ± 0.64; for SHKGNPCRKIC it is -0.392 ± 0.38; for DLCATDMGGYKRGEGPEGAL it is -0.267 ± 1.1.

Turning to LYRVTYSNACMFGVVG, the amyloid nucleation score came to 0.695 ± 0.54. The figure for TFTCVITSGCDLYPLLGHIS is 0.9 ± 0.4.

Consider PVDFNQYVVSGLQDLLHYAG, for which the amyloid nucleation score result is “inactive”. As to CLLVKLARLGDG, the amyloid nucleation score was 0.536 ± 0.63. Then RSCLDGSRVMVSWR, with 0.305 ± 0.46.

For the substance HLYDC, the amyloid nucleation score result was “inactive”. The figure for IRGNSKGMGQREFISPFPAR is -1 ± 0.35; for TITDNSPNKTMIEVEEIRL it is 0.109 ± 1.1.

YQVMLRSCLYLLYFSMFNCL gave an amyloid nucleation score of 1.27 ± 0.79. CCLVLSFLCNMEDSRNGG yielded an amyloid nucleation score of 6.363 ± 0.056. Then HCTLHSSVCSSGCWIE, with 1.1 ± 0.97; and TESPRCRVPGVELPD, with -0.136 ± 0.67; and SIDWRAEMNSLSM, with -0.109 ± 0.24. Then IFMSRWG, with 2.78 ± 0.14.

The substance SGWIRLL yielded an amyloid nucleation score of 0.66 ± 0.36. Consider KRVSRNPNPGVV, for which the amyloid nucleation score is -0.076 ± 0.56. Then LCKPCLGY, with 0.639 ± 0.24; and AADGGYCRCGNDRKCLYAFR, with “inactive”; and KCGGKRCWLSFCLDAD, with 1.48 ± 0.33. Then LNFCSVRVMEEISMVWCMVF, with 4.24 ± 0.11; and MRYVMTFFFHSYKA, with -1.15 ± 0.91. The substance RQNGRKDPGNVKRGITCR displayed an amyloid nucleation score of 0.066 ± 0.38.

Consider SAGVTPLEMKSDRIREDAAG, for which the amyloid nucleation score is 0.629 ± 1. The figure for NWIGS is 1.44 ± 0.41; for FYFTHRFRITVRYSVLVMRT it is 1.69 ± 0.51; for RSVWDRWFDPIMTFEQESTW it is -0.812 ± 1.7. Then LDIRVCRLPRSVFNR, with -0.002 ± 1. In turn, RCYKSLVGMNTHKSAAVVER showed an amyloid nucleation score of 0.011 ± 0.27. TRIVLLVVRRGTRKG: the amyloid nucleation score is 0.889 ± 0.48. Regarding LTSRNYESIY, the amyloid nucleation score is -0.159 ± 0.24. Then YKGLFR, with 0.065 ± 0.45; and CLGNNSFGDLGI, with 0.368 ± 0.34; and APNTEMGFEGLRELQVLPVV, with -0.854 ± 1.1.

IGYRCIVLS came in with an amyloid nucleation score of 1.24 ± 0.45. Then GICDLLAHG, with 0.322 ± 0.25; and DSSCADR, with 0.674 ± 0.41. The substance FERRCYRVSDHVAQVLHDPT came in with an amyloid nucleation score of 0.515 ± 0.97. The figure for QKSLSVEPDAH is -0.557 ± 0.37; for RMSLLYLSSVKLFNWHAALG it is -0.465 ± 0.6. Substance WVWSLRLLGFNNLMDKATGF gave an amyloid nucleation score of -0.312 ± 0.24. LVPWGSFFALA registered an amyloid nucleation score of -0.146 ± 0.97. Then VLSPKSNIGDMSLIFMNTAA, with 0.54 ± 0.79; and SRGFKPMPGQYFCKG, with 0.165 ± 0.26.

On to FIGAFRTTHSAGLLTDRMVL, for which the amyloid nucleation score was 7.851 ± 0.057. Then SYYYHV, with 1.17 ± 0.66; and CEAFADTSSSYRDFYLQHQL, with -1.44 ± 1.2.

Consider LRRSTFASVDLRRADFIKLF, for which the amyloid nucleation score amounted to 0.165 ± 0.69.

On to IRDNDDLLWMEGRSWKWSRR, for which the amyloid nucleation score is 0.27 ± 0.29. Consider SGHGFLRQ, for which the amyloid nucleation score entry is “inactive”. The figure for KACWTFNFCKSMVVKEHDPI is 2.56 ± 0.19; for TLLMRSEGYLFYYAPSLSLV it is -0.494 ± 0.44. In turn, SSFRVGTIVTNSAWRWSPCW had an amyloid nucleation score of 5.4 ± 0.062. The figure for SDRPMRFNFSNNAYDSHLYL is 0.511 ± 0.67; for AVFGRLMVVDVYVSRSALTS it is 0.043 ± 0.94; for LALLWDMPF it is -2.19 ± 2.7. Consider VSQVVCGMSYFGDCAIRQES, for which the amyloid nucleation score turned out to be 0.153 ± 0.5. Then YFFCVFI, with 8.469 ± 0.072; and EGTLSMALTL, with 0.849 ± 0.49; and RIISRCFVMDVWFERQYVTR, with 1.96 ± 0.18.
